Source: patent US20260274928A1

Target: 9-strain panel of authentic SARS-CoV-2 viral isolates
Assay: cell-based or functional assay

B1: S2V29-v37.2 (antibody, V domains shown)
VH: EVQLVESGGSVVQPGRALRLSCAASGITFSSFGMYWVRQAPGKGLEWLGYIAYDGSDTYYADSVKGRFTISRDNSKNTLYLQMNSLRIEDTAVYYCAKDYYPLLSYYYGLDVWGQGTTVTVSS
VL: QSVLTQPRSVSGSPGQSVTISCTGTSSDVGAYNYVSWYQQHPGKAPKFMIYDVDQRPSGVPDRFSGSKSGNTASLIISGLQAEDEADYYCSSYAGSYIWVFGGGTQLTVL
- IC50, authentic virus neutralization: 1.3 to 9.6 ng/mL
- median IC50, authentic virus neutralization: 2 ng/mL
